Publication PMC6753178
Like-named read-outs stand apart in the source and are kept apart here.

Legend:
CCR7 R209A (human) [1] = target: CCR7 R209A (human) (UniProt P32248)
[2] = target: human CCR7 wild type (human) (UniProt P32248)
CCR7 R54A (human) [3] = target: CCR7 R54A (human) (UniProt P32248)
CCR7 L61A (human) [4] = target: CCR7 L61A (human) (UniProt P32248)
CCR7 R209A (human) [5] = target: CCR7 R209A (human) (UniProt P32248); remark: listed apart in the source
CCR7 W114A (human) [6] = target: CCR7 W114A (human) (UniProt P32248)
[7] = target: human CCR7 wild type (human) (UniProt P32248); remark: listed apart in the source
[8] = target: human CCR7 wild type (human) (UniProt P32248); remark: listed apart in the source
CCR7 K50A (human) = CCR7 K50A (human) (UniProt P32248)
CCR7 A118S (human) = CCR7 A118S (human) (UniProt P32248)
CCR7 Y308A (human) = CCR7 Y308A (human) (UniProt P32248)
CCR7 E193A (human) = CCR7 E193A (human) (UniProt P32248)
CCR7 K57A (human) = CCR7 K57A (human) (UniProt P32248)
CCR7 R54A (human) [9] = target: CCR7 R54A (human) (UniProt P32248); remark: listed apart in the source
CCR7 E205A (human) = CCR7 E205A (human) (UniProt P32248)
CCR7 F107A (human) = CCR7 F107A (human) (UniProt P32248)
CCR7 L61A (human) [10] = target: CCR7 L61A (human) (UniProt P32248); remark: listed apart in the source
CCR7 S117A (human) = CCR7 S117A (human) (UniProt P32248)
CCR7 K137A (human) = CCR7 K137A (human) (UniProt P32248)
CCR7 R209A (human) [11] = target: CCR7 R209A (human) (UniProt P32248); remark: listed apart in the source
CCR7 W114A (human) [12] = target: CCR7 W114A (human) (UniProt P32248); remark: listed apart in the source
CCR7 F133A (human) = CCR7 F133A (human) (UniProt P32248)
CCR7 Y65A (human) = CCR7 Y65A (human) (UniProt P32248)
CCR7 N305A (human) = CCR7 N305A (human) (UniProt P32248)

“human chemokine CCL19 (from UniProt Q99731 22-98) (ligand)” was tested, and the Transwell migration of stably transfected 300–19 pre-B cells: activity at 10 nM CCL19 relative to WT CCR7 (CCR7 R209A (human) [1]) was 42 % of WT, the Transwell migration of stably transfected 300–19 pre-B cells: % specific migration at 10 nM CCL19 [2] was 11.6% and the Transwell migration of stably transfected 300–19 pre-B cells: % specific migration at 10 nM CCL19 (CCR7 R54A (human) [3]) was -0.1%. The Transwell migration of stably transfected 300–19 pre-B cells: % specific migration at 10 nM CCL19 (CCR7 L61A (human) [4]) was 7.5%, the Transwell migration of stably transfected 300–19 pre-B cells: % specific migration at 10 nM CCL19 (CCR7 R209A (human) [5]) was 5% and the Transwell migration of stably transfected 300–19 pre-B cells: % specific migration at 10 nM CCL19 (CCR7 W114A (human) [6]) was 1%. The G protein signaling (BRET cAMP Camyel sensor, CHO-k1 cells transfected with CCR7): logEC50 [7] was -9.4 logEC50 (M), the β-arrestin-2 recruitment (bystander BRET, CHO-k1 cells transfected with CCR7): logEC50 [7] was -7.9 logEC50 (M) and the G protein signaling (BRET cAMP Camyel sensor, CHO-k1 cells transfected with CCR7): signal at 100 nM chemokine, normalized to CCL19 [8] was 92%. For the same molecule, the G protein signaling (BRET cAMP Camyel sensor, transfected CHO-k1 cells): -logEC50 (M) of CCL19 (CCR7 K50A (human)) was 8.5 -logEC50 (M), the G protein signaling (BRET cAMP Camyel sensor, transfected CHO-k1 cells): FMut, fold change of CCL19 potency compared to WT CCR7 (CCR7 K50A (human)) was 13 fold and the G protein signaling (BRET cAMP Camyel sensor, transfected CHO-k1 cells): -logEC50 (M) of CCL19 (CCR7 A118S (human)) was 9.7 -logEC50 (M). For the same molecule, the G protein signaling (BRET cAMP Camyel sensor, transfected CHO-k1 cells): FMut, fold change of CCL19 potency compared to WT CCR7 (CCR7 A118S (human)) was 2 fold, the G protein signaling (BRET cAMP Camyel sensor, transfected CHO-k1 cells): -logEC50 (M) of CCL19 (CCR7 Y308A (human)) was 9.1 -logEC50 (M) and the G protein signaling (BRET cAMP Camyel sensor, transfected CHO-k1 cells): FMut, fold change of CCL19 potency compared to WT CCR7 (CCR7 Y308A (human)) was 2 fold. For the same molecule, the G protein signaling (BRET cAMP Camyel sensor, transfected CHO-k1 cells): -logEC50 (M) of CCL19 (CCR7 E193A (human)) was 9.6 -logEC50 (M), the G protein signaling (BRET cAMP Camyel sensor, transfected CHO-k1 cells): FMut, fold change of CCL19 potency compared to WT CCR7 (CCR7 E193A (human)) was 3 fold and the G protein signaling (BRET cAMP Camyel sensor, transfected CHO-k1 cells): -logEC50 (M) of CCL19 (CCR7 K57A (human)) was 9.2 -logEC50 (M). For the same molecule, the G protein signaling (BRET cAMP Camyel sensor, transfected CHO-k1 cells): FMut, fold change of CCL19 potency compared to WT CCR7 (CCR7 K57A (human)) was 2 fold, the G protein signaling (BRET cAMP Camyel sensor, transfected CHO-k1 cells): -logEC50 (M) of CCL19 (CCR7 R54A (human) [9]) was 7.1 -logEC50 (M) and the G protein signaling (BRET cAMP Camyel sensor, transfected CHO-k1 cells): FMut, fold change of CCL19 potency compared to WT CCR7 (CCR7 R54A (human) [9]) was 100 fold. For the same molecule, the G protein signaling (BRET cAMP Camyel sensor, transfected CHO-k1 cells): -logEC50 (M) of CCL19 (CCR7 E205A (human)) was 9.2 -logEC50 (M), the G protein signaling (BRET cAMP Camyel sensor, transfected CHO-k1 cells): FMut, fold change of CCL19 potency compared to WT CCR7 (CCR7 E205A (human)) was 3 fold and the G protein signaling (BRET cAMP Camyel sensor, transfected CHO-k1 cells): -logEC50 (M) of CCL19 (CCR7 F107A (human)) was 8.9 -logEC50 (M). The G protein signaling (BRET cAMP Camyel sensor, transfected CHO-k1 cells): FMut, fold change of CCL19 potency compared to WT CCR7 (CCR7 F107A (human)) was 2 fold, the G protein signaling (BRET cAMP Camyel sensor, transfected CHO-k1 cells): -logEC50 (M) of CCL19 (CCR7 L61A (human) [10]) was 8.9 -logEC50 (M) and the G protein signaling (BRET cAMP Camyel sensor, transfected CHO-k1 cells): FMut, fold change of CCL19 potency compared to WT CCR7 (CCR7 L61A (human) [10]) was 3 fold. The G protein signaling (BRET cAMP Camyel sensor, transfected CHO-k1 cells): -logEC50 (M) of CCL19 (CCR7 S117A (human)) was 9.5 -logEC50 (M), the G protein signaling (BRET cAMP Camyel sensor, transfected CHO-k1 cells): FMut, fold change of CCL19 potency compared to WT CCR7 (CCR7 S117A (human)) was 1 fold and the G protein signaling (BRET cAMP Camyel sensor, transfected CHO-k1 cells): -logEC50 (M) of CCL19 (CCR7 K137A (human)) was 9.2 -logEC50 (M). For the same molecule, the G protein signaling (BRET cAMP Camyel sensor, transfected CHO-k1 cells): FMut, fold change of CCL19 potency compared to WT CCR7 (CCR7 K137A (human)) was 3 fold, the G protein signaling (BRET cAMP Camyel sensor, transfected CHO-k1 cells): -logEC50 (M) of CCL19 (CCR7 R209A (human) [11]) was 8.5 -logEC50 (M) and the G protein signaling (BRET cAMP Camyel sensor, transfected CHO-k1 cells): FMut, fold change of CCL19 potency compared to WT CCR7 (CCR7 R209A (human) [11]) was 8 fold. For the same molecule, the G protein signaling (BRET cAMP Camyel sensor, transfected CHO-k1 cells): -logEC50 (M) of CCL19 (CCR7 W114A (human) [12]) was 8 -logEC50 (M), the G protein signaling (BRET cAMP Camyel sensor, transfected CHO-k1 cells): FMut, fold change of CCL19 potency compared to WT CCR7 (CCR7 W114A (human) [12]) was 13 fold and the G protein signaling (BRET cAMP Camyel sensor, transfected CHO-k1 cells): -logEC50 (M) of CCL19 (CCR7 F133A (human)) was 8.7 -logEC50 (M). For the same molecule, the G protein signaling (BRET cAMP Camyel sensor, transfected CHO-k1 cells): FMut, fold change of CCL19 potency compared to WT CCR7 (CCR7 F133A (human)) was 1 fold, the G protein signaling (BRET cAMP Camyel sensor, transfected CHO-k1 cells): -logEC50 (M) of CCL19 (CCR7 Y65A (human)) was 9 -logEC50 (M) and the G protein signaling (BRET cAMP Camyel sensor, transfected CHO-k1 cells): FMut, fold change of CCL19 potency compared to WT CCR7 (CCR7 Y65A (human)) was 2 fold. The G protein signaling (BRET cAMP Camyel sensor, transfected CHO-k1 cells): -logEC50 (M) of CCL19 (CCR7 N305A (human)) was 8.6 -logEC50 (M) and the G protein signaling (BRET cAMP Camyel sensor, transfected CHO-k1 cells): FMut, fold change of CCL19 potency compared to WT CCR7 (CCR7 N305A (human)) was 4 fold.

In the case of “human chemokine CCL21 (from UniProt O00585 24-134) (ligand)”, the Transwell migration of stably transfected 300–19 pre-B cells: activity at 10 nM CCL21 relative to WT CCR7 (CCR7 R209A (human) [1]) is reported as 2.5 fold, the Transwell migration of stably transfected 300–19 pre-B cells: % specific migration at 10 nM CCL21 [2] is reported as 5.1% and the Transwell migration of stably transfected 300–19 pre-B cells: % specific migration at 10 nM CCL21 (CCR7 R54A (human) [3]) is reported as 0.3%. The Transwell migration of stably transfected 300–19 pre-B cells: % specific migration at 10 nM CCL21 (CCR7 L61A (human) [4]) was 4%, the Transwell migration of stably transfected 300–19 pre-B cells: % specific migration at 10 nM CCL21 (CCR7 R209A (human) [5]) was 10.6% and the Transwell migration of stably transfected 300–19 pre-B cells: % specific migration at 10 nM CCL21 (CCR7 W114A (human) [6]) was 0.6%. The G protein signaling (BRET cAMP Camyel sensor, transfected CHO-k1 cells): efficacy at 100 nM CCL21, normalized to WT CCR7 (CCR7 A118S (human)) was 67 % of WT, the G protein signaling (BRET cAMP Camyel sensor, transfected CHO-k1 cells): efficacy at 100 nM CCL21, normalized to WT CCR7 (CCR7 Y308A (human)) was 38 % of WT and the G protein signaling (BRET cAMP Camyel sensor, transfected CHO-k1 cells): efficacy at 100 nM CCL21, normalized to WT CCR7 (CCR7 E193A (human)) was 45 % of WT. The G protein signaling (BRET cAMP Camyel sensor, transfected CHO-k1 cells): efficacy at 100 nM CCL21, normalized to WT CCR7 (CCR7 K57A (human)) was 99 % of WT, the G protein signaling (BRET cAMP Camyel sensor, transfected CHO-k1 cells): efficacy at 100 nM CCL21, normalized to WT CCR7 (CCR7 E205A (human)) was 48 % of WT and the G protein signaling (BRET cAMP Camyel sensor, transfected CHO-k1 cells): efficacy at 100 nM CCL21, normalized to WT CCR7 (CCR7 F107A (human)) was 76 % of WT. For the same molecule, the G protein signaling (BRET cAMP Camyel sensor, transfected CHO-k1 cells): efficacy at 100 nM CCL21, normalized to WT CCR7 (CCR7 L61A (human) [10]) was 44 % of WT, the G protein signaling (BRET cAMP Camyel sensor, transfected CHO-k1 cells): efficacy at 100 nM CCL21, normalized to WT CCR7 (CCR7 S117A (human)) was 68 % of WT and the G protein signaling (BRET cAMP Camyel sensor, transfected CHO-k1 cells): efficacy at 100 nM CCL21, normalized to WT CCR7 (CCR7 K137A (human)) was 43 % of WT. The G protein signaling (BRET cAMP Camyel sensor, transfected CHO-k1 cells): efficacy at 100 nM CCL21, normalized to WT CCR7 (CCR7 R209A (human) [11]) was 132 % of WT, the G protein signaling (BRET cAMP Camyel sensor, transfected CHO-k1 cells): efficacy at 100 nM CCL21, normalized to WT CCR7 (CCR7 W114A (human) [12]) was 32 % of WT and the G protein signaling (BRET cAMP Camyel sensor, transfected CHO-k1 cells): efficacy at 100 nM CCL21, normalized to WT CCR7 (CCR7 F133A (human)) was 27 % of WT. The G protein signaling (BRET cAMP Camyel sensor, transfected CHO-k1 cells): efficacy at 100 nM CCL21, normalized to WT CCR7 (CCR7 Y65A (human)) was 44 % of WT and the G protein signaling (BRET cAMP Camyel sensor, transfected CHO-k1 cells): efficacy at 100 nM CCL21, normalized to WT CCR7 (CCR7 N305A (human)) was 53 % of WT.

B1: CCL19^CCL21N-term chimera (ligand)
chain: SDGGAQDCCLKYSQRKIPGYIVRNFHYLLIKDGCRVPAVVFTTLRGRQLCAPPDQPWVERIIQRLQRTSAKMKRRSS
With B1 the G protein signaling (BRET cAMP Camyel sensor, CHO-k1 cells transfected with CCR7): logEC50 [8] was -8.9 logEC50 (M) and the G protein signaling (BRET cAMP Camyel sensor, CHO-k1 cells transfected with CCR7): signal at 100 nM chemokine, normalized to CCL19 [8] was 90%.
